From patent US20110112279A1 (Genentech, published 2011)

B1: human STOP-1, full length, C-terminal 8xHis tag (h762HIP; M1-K243-His), expressed in CHO-psgb cells (ligand)
chain: SEIPKGKQKAQLRQREVVDLYNGMCLQGPAGVPGRDGSPGANGIPGTPGIPGRDGFKGEKGECLRESFEESWTPNYKQCSWSSLNYGIDLGKIAECTFTKMRSNSALRVLFSGSLRLKCRNACCQRWYFTFNGAECSGPLPIEAIIYLDQGSPEMNSTINIHRTSSVEGLCEGIGAGLVDVAIWVGTCSDYPKGDASTGWNSVSRIIIEELPKHHHHHHHH
notes: The secreted protein purified from medium lacks the signal peptide; Light scattering: about 58% hexamer and 42% trimer; also called UNQ762; full length form
B2: human STOP-1 short form (L94-K243) with C-terminal His tag, baculovirus expressed (ligand, not shown: small tags and cut ends)
chain: LRESFEESWTPNYKQCSWSSLNYGIDLGKIAECTFTKMRSNSALRVLFSGSLRLKCRNACCQRWYFTFNGAECSGPLPIEAIIYLDQGSPEMNSTINIHRTSSVEGLCEGIGAGLVDVAIWVGTCSDYPKGDASTGWNSVSRIIIEELPK
notes: also called #94-243; L94-K243-His
B3: human STOP-1 S31-K243 with C-terminal His tag, baculovirus expressed (ligand, not shown: small tags and cut ends)
chain: SEIPKGKQKAQLRQREVVDLYNGMCLQGPAGVPGRDGSPGANGIPGTPGIPGRDGFKGEKGECLRESFEESWTPNYKQCSWSSLNYGIDLGKIAECTFTKMRSNSALRVLFSGSLRLKCRNACCQRWYFTFNGAECSGPLPIEAIIYLDQGSPEMNSTINIHRTSSVEGLCEGIGAGLVDVAIWVGTCSDYPKGDASTGWNSVSRIIIEELPK
notes: Primarily trimeric by light scattering; also called S31-K243-His; S31humanSTOP-1-pAcGP67B
B4: S9 Fab displayed on M13 phage (V0350-2b-S9) (Fab)
light: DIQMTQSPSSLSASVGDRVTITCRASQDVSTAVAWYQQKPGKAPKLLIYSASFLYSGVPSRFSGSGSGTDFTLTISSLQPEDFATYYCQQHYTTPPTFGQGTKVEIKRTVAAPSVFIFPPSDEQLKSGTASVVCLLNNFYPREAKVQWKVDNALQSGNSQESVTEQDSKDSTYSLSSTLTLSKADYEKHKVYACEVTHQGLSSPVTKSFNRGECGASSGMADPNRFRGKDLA
heavy: AYAEVQLVESGGGLVQPGGSLRLSCAASGFTISNYGIHWVRQAPGKGLEWVGRISPSNGSTYYADSVKGRFTISADTSKNTAYLQMNSLRAEDTAVYYCAKCSVRFAYWGQGTLVTVSSASTKGPSVFPLAPSSKSTSGGTAALGCLVKDYFPEPVTVSWNSGALTSGVHTFPAVLQSSGLYSLSSVVTVPSSSLGTQTYICNVNHKPSNTKVDKKVEPKSCDKTHL
notes: also called S9 (Fab)-phage
B5: human STOP-1 delta-THD (residues 1-54, 94-243, plus His), expressed in CHO-psgb cells (ligand)
chain: SEIPKGKQKAQLRQREVVDLYNGMLRESFEESWTPNYKQCSWSSLNYGIDLGKIAECTFTKMRSNSALRVLFSGSLRLKCRNACCQRWYFTFNGAECSGPLPIEAIIYLDQGSPEMNSTINIHRTSSVEGLCEGIGAGLVDVAIWVGTCSDYPKGDASTGWNSVSRIIIEELPKHHHHHHHH
notes: also called ΔTHDh762HIP; M1-M54 fused to L94-K243-His
B6: human STOP-1 E89-K243 with C-terminal His tag, baculovirus expressed (ligand, not shown: small tags and cut ends)
chain: EKGECLRESFEESWTPNYKQCSWSSLNYGIDLGKIAECTFTKMRSNSALRVLFSGSLRLKCRNACCQRWYFTFNGAECSGPLPIEAIIYLDQGSPEMNSTINIHRTSSVEGLCEGIGAGLVDVAIWVGTCSDYPKGDASTGWNSVSRIIIEELPK
notes: A mix of trimeric and hexameric complexes by light scattering; also called E89-K243-His; E89humanSTOP-1-pAcGP67B
B7: S7 F(ab)'2 displayed on M13 phage (V0350-4-S7) (other)
light: SDIQMTQSPSSLSASVGDRVTITCRASQDVSTAVAWYQQKPGKAPKLLIYSASFLYSGVPSRFSGSGSGTDFTLTISSLQPEDFATYYCQQSYTTPPTFGQGTKVEIKRTVAAPSVFIFPPSDEQLKSGTASVVCLLNNFYPREAKVQWKVDNALQSGNSQESVTEQDSKDSTYSLSSTLTLSKADYEKHKVYACEVTHQGLSSPVTKSFNRGECGASSGMADPNRFRGKDLA
heavy: AYAEVQLVESGGGLVQPGGSLRLSCAASGFTISGSDIHWVRQAPGKGLEWVGRISPYGGNTNYADSVKGRFTISADTSKNTAYLQMNSLRAEDTAVYYCARVGGLKLLFDYWGQGTLVTVSSASTKGPSVFPLAPSSKSTSGGTAALGCLVKDYFPEPVTVSWNSGALTSGVHTFPAVLQSSGLYSLSSVVTVPSSSLGTQTYICNVNHKPSNTKVDKKVEPKSCDKTHG
notes: also called S7-F(ab)'2-phage; F(ab)'2-S7 phage
B8: S16 F(ab)'2 displayed on M13 phage (V0350-4-S16) (other)
light: SDIQMTQSPSSLSASVGDRVTITCRASQDVSTAVAWYQQKPGKAPKLLIYSASFLYSGVPSRFSGSGSGTDFTLTISSLQPEDFATYYCQQSYTTPPTFGQGTKVEIKRTVAAPSVFIFPPSDEQLKSGTASVVCLLNNFYPREAKVQWKVDNALQSGNSQESVTEQDSKDSTYSLSSTLTLSKADYEKHKVYACEVTHQGLSSPVTKSFNRGECGASSGMADPNRFRGKDLA
heavy: AYAEVQLVESGGGLVQPGGSLRLSCAASGFTITNSDIHWVRQAPGKGLEWVATIYPYGGYTYYADSVKGRFTISADTSKNTAYLQMNSLRAEDTAVYYCARGGGMDGYVMDYWGQGTLVTVSSASTKGPSVFPLAPSSKSTSGGTAALGCLVKDYFPEPVTVSWNSGALTSGVHTFPAVLQSSGLYSLSSVVTVPSSSLGTQTYICNVNHKPSNTKVDKKVEPKSCDKTHG
notes: also called S16-F(ab)'2-phage; F(ab)'2-S16 phage
B9: S4 Fab displayed on M13 phage (V0350-2b-S4) (Fab, V domains shown)
VH: EVQLVESGGGLVQPGGSLRLSCAASGFTISGSWIHWVRQAPGKGLEWVAWIAPYSGATDYADSVKGRFTISADTSKNTAYLQMNSLRAEDTAVYYCAREGGLYWVFDYWGQGTLVTVSS
VL: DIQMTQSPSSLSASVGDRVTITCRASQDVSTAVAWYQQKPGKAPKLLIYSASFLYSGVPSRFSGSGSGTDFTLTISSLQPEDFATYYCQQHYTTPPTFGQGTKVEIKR
notes: Fab on phage: the heavy chain (VH-CH1) is fused to M13 cP3 and the light chain carries a gD tag; also called S4-Fab phage; S4 (Fab)-phage
B10: S4 IgG (full-length human IgG1; LPG3-humankappaG6 and LPG4-humanHC-S4), expressed in CHO cells (antibody, V domains shown)
VH: EVQLVESGGGLVQPGGSLRLSCAASGFTISGSWIHWVRQAPGKGLEWVAWIAPYSGATDYADSVKGRFTISADTSKNTAYLQMNSLRAEDTAVYYCAREGGLYWVFDYWGQGTLVTVSS
VL: DIQMTQSPSSLSASVGDRVTITCRASQDVSTAVAWYQQKPGKAPKLLIYSASFLYSGVPSRFSGSGSGTDFTLTISSLQPEDFATYYCQQSYTTPPTFGQGTKVEIKR
notes: also called S4 antibody

Tests used:
[1] = target: the molecule itself; assay: self-association; size exclusion chromatography with light scattering
Procedure: Full length STOP-1-HIS proteins or various truncations thereof were expressed in SF9 baculovirus-infected cells or CHO cells as described above. The proteins were purified from the media by using Ni-NTA agarose beads as discussed above. The baculoviral-expressed proteins S31-K243-His, E89-K243-His, or L94-K243-His were loaded onto an 8 mm×300 mm Shodex KW802.5 size exclusion column and eluted with 100 mM NH₄HCO₃, 200 mM NH₄Cl pH7.8 at a flow rate of 1 ml/ml. CHO-psgb expressed full length proteins were loaded onto an 8 mm×300 mm Shodex KW804 size exclusion column and eluted with 25 mM sodium phosphate, 500 mM NaCl at a flow rate of 1 ml/ml. CHO-psgb expressed proteins, M1-M54 fused to L94-K243-His, were loaded onto an 8 mm×300 mm Shodex KW802.5 size exclusion column and eluted with 25 mM sodium phosphate, 500 mM NaCl at a flow rate of 1 ml/ml.
The eluted protein was analyzed by an Agilent Model 1100 HPLC system with an Agilent multi wavelength detector (UV) connected to a Wyatt MiniDAWN laser light scattering (LS) instrument and a Wyatt Optilab differential refractometer (RI). The average molecular weight of the proteins or their aggregates in each peak was determined by selecting a peak and using the Zimm fitting method (Phillip J. Wyatt, (1993) Analytica Chimica Acta 272:1-40) with the Astra software package (Wyatt, USA). The percentage of aggregation was calculated from the integrated peak areas of the UV signal at 214 nm. See FIG. 6 and FIG. 7 for results.

[2] = target: B2; assay: solution competition phage ELISA (762 S/S): short form coated, phage pre-incubated with short form STOP-1 in solution; IC50 is the STOP-1 concentration
Procedure: (§1) The wells were blocked by adding 65 ul 1% BSA for 30 minutes followed by 40 ul 1% Tween20 for another 30 minutes. Next, the wells were washed with PBS—0.05% Tween20 5 times. Various dilutions of F(ab) or F(ab)′₂ phage down to 0.1 O.D./ml in ELISA buffer (PBS—0.1% BSA and 0.05% Tween20) were added to the wells for 15 minutes at room temperature. The wells were then washed with PBS—0.05% Tween20 at least three times. 75 ul of HRP-conjugated anti-M13 antibody (Amersham, 1/5000 dilution with ELISA buffer) per well was added and incubated at room temperature for 30 minutes. The wells were washed again with PBS—0.05% Tween20 at least five times. Next, 100 ul/well of a 1:1 ratio of 3,3′,5,5′-tetramethylbenzidine (TMB) Peroxidase substrate and Peroxidase Solution B (H₂O₂) ((Kirkegaard-Perry Laboratories (Gaithersburg, Md.)) was added to the well and incubated for 5 minutes at room temperature. The reaction was stopped by adding 100 ul 1M Phosphoric Acid (H3PO₄) ((Kirkegaard-Perry Laboratories (Gaithersburg, Md.)) to each well. The optical density of the color in each well was determined using a standard ELISA plate reader at 450 nm. The dilutions of phage were plotted against the O.D. readings.
(§2) Third, a competition ELISA was performed. 96-well Nunc Maxisorp plates were coated with full length or short form human STOP-1 (2 ug/ml in PBS) at 4° C. overnight or at room temperature for 2 hours. The wells were blocked by adding 65 ul 1% BSA for 30 minutes followed by 40 ul 1% Tween20 for another 30 minutes. The wells were washed with PBS—0.05% Tween20 5 times. […] The unbound phage was assayed by transferring 75 ul of the well mixture to second 96-well plate pre-coated with full length or short form human STOP-1 and incubating at room temperature for 15 minutes. The wells of the second plate were washed with PBS—0.5% Tween20 at least three times. 75 ul of HRP-conjugated anti-M13 antibody ( 1/5000 dilution with ELISA buffer) per well was added and incubated at room temperature for 30 minutes. The wells were washed again with PBS—0.05% Tween20 at least five times.

[3] = target: B1; assay: solution competition phage ELISA (762 S/F): short form coated, phage pre-incubated with full length STOP-1 in solution; IC50 is the STOP-1 concentration
Procedure: as §1, §2

[4] = target: B1; assay: solution competition phage ELISA (762 F/F): full length coated, phage pre-incubated with full length STOP-1 in solution; IC50 is the STOP-1 concentration
Procedure: as §1, §2

[5] = target: B1; assay: blocking ELISA, legend of FIG. 22
Procedure: First, 96-well Nunc Maxisorp plates were coated with full length human STOP-1 (2 ug/ml in PBS) at 4° C. overnight or at room temperature for 2 hours. The wells were blocked by adding 65 ul 1% BSA for 30 minutes followed by 40 ul 1% Tween20 for another 30 minutes. Next, the wells were washed with PBS—0.05% Tween20 5 times. Various concentrations of S4 IgG (in ELISA buffer) were incubated in the wells for 30 minutes at room temperature. Then, S4 (Fab)-phage, S7 (F(ab)′₂)-phage, S9 (Fab)-phage, S16 (F(ab)′₂)-phage or F5 (F(ab)′₂)-phage were added to different wells for 10 minutes at a concentration that would normally produce 90% binding capacity in the absence of the S4 IgG antibody. The wells were washed with PBS—0.05% Tween20 5 times.
Binding was quantified by adding 75 ul/well of horse radish peroxidase (HRP)-conjugated anti-M13 antibody in PBS plus 0.5% BSA and 0.05% Tween20 at room temperature for 30 minutes (Sidhu et al., supra). […] Next, 100 ul/well of a 1:1 ratio of 3,3′,5,5′-tetramethylbenzidine (TMB) Peroxidase substrate and Peroxidase Solution B (H₂O₂) ((Kirkegaard-Perry Laboratories (Gaithersburg, Md.)) was added to the well. The reaction was stopped by adding 100 ul 1M Phosphoric Acid (H₃PO₄) ((Kirkegaard-Perry Laboratories (Gaithersburg, Md.)) to each well. The OD of the yellow color in each well was determined using a standard ELISA plate reader at 450 nm.

| Binder | binding result [1] | IC50 [2] [nM] | IC50 [3] [nM] | IC50 [4] [nM] | other results |
| --- | --- | --- | --- | --- | --- |
| B1 | binds | – | – | – | – |
| B2 | binds | – | – | – | – |
| B3 | binds | – | – | – | – |
| B4 | – | > 1000 | 331 | – | – |
| B5 | binds | – | – | – | – |
| B6 | binds | – | – | – | – |
| B7 | – | 35 | 4.7 | 2.7 | – |
| B8 | – | 114 | – | 32 | – |
| B9 | – | 3 | 719 | 0.9 | – |
| B10 | – | – | – | – | binding result [5]: binds |
